# Measurements: US20240409645A1
# T1: mouse IL-2Rβ (mouse) (UniProt P16297)
# T1 sequence (looked up): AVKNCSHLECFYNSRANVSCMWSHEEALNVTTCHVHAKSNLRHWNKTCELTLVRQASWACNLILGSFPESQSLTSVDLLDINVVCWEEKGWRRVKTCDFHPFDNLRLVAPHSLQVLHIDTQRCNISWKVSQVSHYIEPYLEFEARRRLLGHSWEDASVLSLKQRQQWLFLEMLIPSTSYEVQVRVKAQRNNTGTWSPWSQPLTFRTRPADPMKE
# Biological target: T1, mouse IL-2Rβ (mouse)
# Assay: P.E. ELISA, coated protein
row,Binder,P.E. binding ELISA OD
1,FJ1427_P035MP03F12 (VHH) VHH: EVQLVESGGGLVQAGGSLRLSCAASGSIFSINAMAWFRQVPGMERELVAAISRDGGASVYRDSVKGRFTISRDNSKNTVYLQMNTLKPEDTAIYVCAATRAIGWTARWITTDFDFWGQGTQVTVSS,0.048 OD450 nm
2,FJ1427 P035MP02E06 (VHH) VHH: QVQLVESGGGSVQPGGSLRLSCAASGFTFSNYAMSWVRQAPGKGLEWVASITGFGRGTDYADSVKGRFTISRDNAEDTLYLQMNSLKPEDTAVYYCAKYSSSTYYPPTPARGRDYRGQGTQVTVSS,0.048 OD450 nm
3,FJ1427_P035MP02C09 (VHH) VHH: QVQLQESGGGLVQAGGSLRLSCVASGSVSSINGMAWYRQGADNQRVLVAAISRVGNTAYGDSVKGRFTISRQNARNTVYLQMNSLKPEDTAVYYCNADSWGGDDYWGQGTQVTVSS,0.047 OD450 nm
4,FJ1427_P035MP02B10 (VHH) VHH: QVQLVESGGGLVEAGGSLRLSCAASGRAFNNFPMGWFRQAPGKEREFVAAITWISGSTLYADSVKGRFTISRDKSKNTVYLQMSGLKPEDTALYYCAAALKTITRGQHDYTYWGQGTQVTVSS,0.047 OD450 nm
5,FJ1427_P035MP02B09 (VHH) VHH: EVQLVESGGGLVQAGGSLRLSCAASGRTFSTTEMGWFRQAPGKEREFVAAITWTGRGTMYAESVEGRFTISRENAKNMVYLQMNSLKPEDTAIYYCAAARRGRAAVRSEGGYDFWGQGTQVTVSS,0.047 OD450 nm
6,FJ1427_P035MP02G10 (VHH) VHH: QVQLVESGGGLVQAGGSLRLSCAASGRTFSTTEMGWFRQAPGKEREFVAAITWTGRGTMYAESVEGRFTISRENAKNMVYLQMNSLKPEDTAIYYCAAARRGRAAVRSEGGYDFWGQGTQVTVSS,0.048 OD450 nm
7,FJ1427 P035MP02E11 (VHH) VHH: QVQLQESGGGLVQAGGSLRLSCAASGRTFSNYVMAWFRQAPGKEREFVGAITQTGRGTFYADSVEGRFTISRINDKNTVYLQMNSLKPEDTAVYYCSAPRSGRAGTRNQMDYEYWGQGTQVTVSS,0.048 OD450 nm
8,FJ1427_P035MP03F10 (VHH) VHH: EVQLVESGGGLVQAGGSLRLSCAASGRDFSSYAMGWFRQAPGKEREFVVAITWTKRSTDFPDSVKGRFTISRDNAKNTVYLDMNSLKPEDTAVYYCASARGLPVTPLGDIIYWGEGTLVTVSS,0.048 OD450 nm
9,FJ1427 P035MP06E05 (VHH) VHH: QVQLVESGGELVQGGASLRLSCAASGRTFSNANMAWFRQAPEKEREFVALITWSSGSTLYADSVKGRFTISRDNARKMVYLQMNSLKPEDTAVYYCAADGPPYSGTYYRYDTYDYWGQGTQVTVSS,0.046 OD450 nm
10,FJ1427_P035MP03C03 (VHH) VHH: QVQLVESGGGLVQPGGSLRLSCAISGGTLDSYGIGWVRQAPGKQREGVSCMSRSDDRTYYADSVKGRFTISKDSAKNTVYLQMTSLKPEDTAVYYCAAVDAYGCSLVQPTTYDFWGLGTQVTVSS,0.048 OD450 nm
11,FJ1427 P035MP02C03 (VHH) VHH: EVQLVESGGGLVQTGGSLRLSCAASGSQFINDVMGWYRQVPGKQRELVADMDDTGSTEYADSVKGRFTILRDSVKNTAYLQMSNLKPEDTGVYYCKAGLWIKGRHFDYWGQGTQVTVSS,0.047 OD450 nm
12,FJ1427_P035MP02B01 (VHH) VHH: QVQLVESGGGLVQTGGSLRLSCAASGSQFINDVMGWYRQVPGKQRELVADMDDTGSTKYADSVKGRFTILRDSVKNTAYLQMSNLKPEDTGVYYCKAGLWIKGRHFDYWGQGTQVTVSS,0.048 OD450 nm
13,FJ1427_P035MP02F09 (VHH) VHH: EVQLVESGGGLVQAGGSLRLSCAASGDVFVRYTMAWFRQAPGKEREFVASVTDSGRTTDYVDSVKGRFTVSRDNAKNTVYLQMNNLKPEDTAVYYCAANTDYFQIRSLEFNTWGQGTQVTVSS,0.051 OD450 nm
14,FJ1427_P035MP02G09 (VHH) VHH: QVQLVESGGGLVQAGGSLRLSCTVSGDVFVRYTMAWFRQAPGKEREFVALVTDSGRTTEYVDSVKGRFTVSRDNAKNTVYLQMNNLKPEDTAVYYCAANTDYFRIRSLDANTWGQGTQVTVSS,0.066 OD450 nm
15,FJ1427_P035MP02F10 (VHH) VHH: EVQLVESGGGLVQAGGSLRLSCVVSGDVFVRYTMAWFRQAPGKEREFVAVVTDSGRTTEYVDSVKGRFTVSRDNAKNTVYLQMNNLKPEDTAVYYCAANTDYFQIRSVDNNAWGQGTQVTVSS,0.051 OD450 nm
16,FJ1427 P035MP02D11 (VHH) VHH: QVQLQESGGGLVQAGDSLRISCAASGRIFSNYAMGWFRQAPGKETEFVAGITHLTSTTHYADSVKGRFTISRDNAKNTMHLQMNNLKPEDTALYYCAADRNIKITADWSYWGQGTQVTVAS,0.047 OD450 nm

# Results, then the binder that gave them:
row,P.E. binding ELISA OD,Binder
1,0.047 OD450 nm,FJ1427 P035MP02C01 (VHH) VHH: QVQLVESGGGLVQPGGSLGLSCAASGFTFDNYAMSWVRQAPGKGLEWVSSITGAGRGTHYADSVKGRFTISRDNAKNTLYLQMNSLKPEDTAVYYCAKYSSSTYYPPTPARGTDYRGPGTQVTVSS
2,0.049 OD450 nm,FJ1427_P035MP03F08 (VHH) VHH: EVQLVESGGGLVQTGGSLRLSCAASGGTFSRDAMAWFRQVPGKEREFVALISWSGATTNYADSVKGRFAISRDNGKNTVYLQMNRLKPADTAIYYCAADRRPMGSRSYFEPTEYDDWGQGTQVTVSS
3,0.047 OD450 nm,FJ1427 P035MP02D10 (VHH) VHH: EVQLVESGGGLVQAGGSLRLSCAASGRTFSSDAKAWFRQAPGKEREFVAAITWAGRGTDYADSVKDRFTITRDNAKNMVYLQMSSLKPEDTAVYYCALNPTGVIGPGFRNSNRYDYWGQGTQVTVAS
4,0.047 OD450 nm,FJ1427_P035MP02A11 (VHH) VHH: EVQLVESGGGLVQAGGSLRLSCAASGRTFSTTEMGWFRQAPGKEREFVAAITWTGRGTMYAESVEGRFTISRENAKNMVYLQMNSLKPEDTAIYYCAAARRGRAAVRSEGGYDFWGQGTQATVSS
5,0.049 OD450 nm,FJ1427_P035MP02E01 (VHH) VHH: EVQLVESGGGLVQIGGSLRLSCAASGRTFSSITMAYFRQVPGKEREWVAGINFSGTRTFYADSVKGRFLISRDDAKSTMYLQMNSLKPEDTAVYYCAASPRGFYGPGNALYDYWGQGTQVTVSS
6,0.047 OD450 nm,FJ1427_P035MP06F05 (VHH) VHH: QVQLVESGGGLVQTGDSLRLSCAASGRSLDTTYIAWFRQAPGKERDFLAYISPRFSHTWYADSVKGRFTISRNIAKRTVDLEMNSLEPEDTAVYYCAAREHSGSTAWEHYDHWGQGTQVTVSS
7,0.05 OD450 nm,FJ1427 P035MP03A12 (VHH) VHH: EVQLVESGGGLVQAGGSLRLSCAASGRTFSINAMGWFRQAPGKEREFVAAISRSGGSTVYVDGVKGRFTISRDNAKNTVYLQMNSLEPEDTAVYYCAATMAVGWTTRWRTADFDSWGQGTQVTVSS
8,0.048 OD450 nm,FJ1427 P035MP02D01 (VHH) VHH: QVQLQESGGGLVQTGGSLRLSCAASGSQFINDVMGWYRQVPGKQRELVADMDDTGSTKYADSVKGRFTILRDSVKNTAYLQMSNLKPEDTGVYYCKAGLWIKGRHSDYWGQGTQVTVSS
9,0.056 OD450 nm,FJ1427 P035MP02D09 (VHH) VHH: QVQLVESGGGLVQAGGSLRLACALSGDVFVRYTMAWFRQAPGKEREFVASVTDSGRTTDYVASVQGRFTVSRDNNKNTVYLQMNSLKPEDTAVYYCAANTDYFQIRSLDRNTWGQGTQVTVSS
10,0.051 OD450 nm,FJ1427 P035MP02H10 (VHH) VHH: EVQLVESGGGLVQAGGSLRLSCAASGDVFVRYTMAWFRQAPGKEREFVASVTDSGRTTDYVDSVKGRFTVSRDNAKNTVYLQMNNLKPEDTAVYYCAANTDYFQIKSLDRNTWGQGTQVTVSS
11,0.05 OD450 nm,FJ1427_P035MP02C10 (VHH) VHH: QVQLVESGGGLVQAGGSLRLACALSGDVFVRYTMAWFRQAPGKEREFVASVTDSGRTTDYVASVQGRFTVSRDNNKNTVYLQMNSLKPEDTAVYYCAANTDYFQIRSLDRNTWGQGTQVTVSS
12,0.047 OD450 nm,FJ1427 P035MP02A10 (VHH) VHH: QLQLVESGGGLVQTGTSLRLSCAASGHTSRINAMGWFRQFPGKEREFVAAISRNGGSTVYVDSVKGRFTISRDNAKSTVYLQMNSLKPEDTAVYYCTATDAVGWTTRWMTADFGFWGQGTQVTVSS
13,0.049 OD450 nm,FJ1427 P035MP02H09 (VHH) VHH: QLQLVESGGGLVQPGGSLRLSCAAAGRAIENYPVGWFRRAPGKEREFVAAITWISGSTLYADSVKGRFTISRDNAKNTVYLQMSSLKPEDTALYYCAAALKTITRGQNDYSYWGQGTQVTVSS
14,0.048 OD450 nm,FJ1427_P035MP02B08 (VHH) VHH: EVQLVESGGGLVQAGGSLRLSCAASGRAIENYPVGWFRQAPGKEREFVAAITWISGSTLYADSVKGRFTISRDNAKNTVYLQMSSLKPEDTALYYCAAALKTITRGQNDYSYWGQGTQVTVSS
15,0.047 OD450 nm,FJ1427_P035MP02E10 (VHH) VHH: QVQLVESGGGLVQAGGSLRLSCAAAGRAIENYPVGWFRRAPGKEREFVAAITWISGSTLYADSVKGRFTISRDNAKNTVYLQMSSLKPEDTALYYCAAALKTITRGQNDYSYWGQGTQVTVSS
16,0.048 OD450 nm,FJ1427_P035MP02A01 (VHH) VHH: QVQLVESGGGLVQTGGSLRLSCVVSGSHFISDVMGWYRQVPGKQRELVADMADGGSAKYGDSVKGRFTILRDSVKNTVYLQMSSLNPEDTGVYYCKAGLWITGRHSDYWGQGTQVTVSS
